{"source": "patent CN117603358A", "biological_target": "S蛋白, SARS-CoV-2原型毒株 (SARS-CoV-2 (prototype)) (UniProt P0DTC2)", "assay": "cell-based or functional assay"}
{"substance": "LY-CoV1404 (antibody)", "values": [{"measurement": "假病毒中和活性 IC50", "value": 1.19, "unit": "ng/mL"}]}
